Results published in patent US20250171542A1 (ADEPT THERAPEUTICS, published 2025).

Legend:
[1] = molecular target: T1, human PD-L1-His (Sino Biological, Cat #10084-H08H) (human, UniProt Q9NZQ7 19-238); assay: BLI (Gator), antibody on HFC probe, human PD-L1-His in solution
T1 construct: Bought protein; also called human PD-L1 ECD-His; recombinant human PD-L1-His protein; not shown: His tag
Protocol: The affinity of the binding of the exemplary anti-PD-L1 antibodies of the present disclosure was determined. Assay was performed according to the protocol recommended by Gator or Gator Plus (Gator Bio Inc.). Briefly, human PD-L1-His (Sino Biological, Cat #10084-H08H) was serially diluted 4-fold, starting at 4 μg/ml. After three times of regeneration in generation buffer (Gator Bio, Cat #120012) and neutralization of HFC probe (Gator Bio, Cat #160003), 1 μg/ml of antibody to be tested in Q buffer (Gator Bio, Cat #120010) was immobilized onto HFC probe. After a baseline step, probe immobilized with antibody was dipped into antigen solutions. The association and dissociation of antigen from antibody was measured on BLI machine Gator. Affinity was calculated using Gator Bio analysis software.
Table 22 below summarizes the binding affinity to human PD-L1 using Gator.

[2] = molecular target: T2, rat PD-L1 (Sino Biological, Cat #80450-R08H) (rat, UniProt D4AE25 19-239); assay: ELISA
T2 construct: not shown: The vendor's polyhistidine tag
T2 sequence (D4AE25 entry or part of it R08H R08H limits assumed): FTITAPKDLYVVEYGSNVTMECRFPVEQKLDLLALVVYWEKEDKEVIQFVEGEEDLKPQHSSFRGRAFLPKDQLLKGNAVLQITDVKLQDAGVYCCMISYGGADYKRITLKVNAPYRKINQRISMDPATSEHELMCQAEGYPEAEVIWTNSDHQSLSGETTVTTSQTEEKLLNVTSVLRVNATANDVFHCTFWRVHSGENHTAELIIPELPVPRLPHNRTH

[3] = molecular target: T3, PD-L2 (Sino Biological, Cat #10292-H08H) (UniProt Q9BQ51 20-219); assay: ELISA
T3 sequence (looked up): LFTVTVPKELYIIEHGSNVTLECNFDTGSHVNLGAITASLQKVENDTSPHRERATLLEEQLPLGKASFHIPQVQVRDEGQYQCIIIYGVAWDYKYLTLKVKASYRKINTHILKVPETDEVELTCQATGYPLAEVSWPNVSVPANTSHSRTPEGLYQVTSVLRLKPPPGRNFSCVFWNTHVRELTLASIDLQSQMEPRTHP

[4] = molecular target: T4, CD80 (Sino Biological, Cat #10698-H08H) (UniProt P33681 35-242); assay: ELISA
T4 sequence (looked up): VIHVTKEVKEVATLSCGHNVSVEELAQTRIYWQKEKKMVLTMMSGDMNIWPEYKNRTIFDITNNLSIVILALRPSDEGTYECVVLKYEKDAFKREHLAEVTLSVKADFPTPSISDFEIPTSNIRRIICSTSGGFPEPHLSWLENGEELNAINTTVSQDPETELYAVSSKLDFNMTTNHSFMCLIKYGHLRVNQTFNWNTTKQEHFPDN

[5] = molecular target: T5, CD86 (Sino Biological, Cat #10699-H08H) (UniProt P42081 24-245); assay: ELISA
T5 sequence (looked up): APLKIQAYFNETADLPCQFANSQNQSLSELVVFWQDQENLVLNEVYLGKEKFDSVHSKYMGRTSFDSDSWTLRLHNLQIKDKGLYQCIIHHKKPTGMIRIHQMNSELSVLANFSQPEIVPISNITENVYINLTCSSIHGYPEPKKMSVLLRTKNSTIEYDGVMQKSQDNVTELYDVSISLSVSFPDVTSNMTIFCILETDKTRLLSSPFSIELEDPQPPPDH

[6] = molecular target: T6, B7-H3 (Sino Biological, Cat #11188-H08H) (UniProt Q5ZPR3 29-461); assay: ELISA
T6 sequence (looked up): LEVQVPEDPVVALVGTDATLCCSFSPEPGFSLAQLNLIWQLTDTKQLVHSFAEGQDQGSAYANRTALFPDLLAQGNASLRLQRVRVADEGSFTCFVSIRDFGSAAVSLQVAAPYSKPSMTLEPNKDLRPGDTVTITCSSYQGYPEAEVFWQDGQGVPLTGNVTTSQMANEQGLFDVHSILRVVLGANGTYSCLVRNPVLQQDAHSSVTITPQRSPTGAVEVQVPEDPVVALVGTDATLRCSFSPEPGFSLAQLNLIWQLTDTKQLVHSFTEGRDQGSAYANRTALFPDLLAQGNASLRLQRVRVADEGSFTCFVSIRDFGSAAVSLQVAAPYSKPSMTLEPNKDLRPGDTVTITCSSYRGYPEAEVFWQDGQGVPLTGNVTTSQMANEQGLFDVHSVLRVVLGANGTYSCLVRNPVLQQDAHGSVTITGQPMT

[7] = molecular target: T7, canine PD-L1 (Acro Biosystems, Cat #PDL-C52H4) (canine, UniProt E2RKZ5 19-236); assay: ELISA
T7 construct: not shown: The vendor's tag, probably a polyhistidine tag
T7 sequence: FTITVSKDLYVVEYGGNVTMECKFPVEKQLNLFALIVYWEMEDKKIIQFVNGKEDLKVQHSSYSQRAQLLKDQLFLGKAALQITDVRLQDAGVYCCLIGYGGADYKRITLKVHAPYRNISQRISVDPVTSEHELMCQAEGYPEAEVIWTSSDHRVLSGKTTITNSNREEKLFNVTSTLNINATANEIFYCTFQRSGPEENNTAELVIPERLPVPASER

[8] = molecular target: mouse PD-L1 (Sino Biological, Cat #50010-M08H) (mouse, UniProt Q9EP73 19-238); assay: ELISA
mouse PD-L1 (Sino Biological, Cat #50010-M08H), sequence (Q9EP73 19-238 limits assumed, stated change not applied): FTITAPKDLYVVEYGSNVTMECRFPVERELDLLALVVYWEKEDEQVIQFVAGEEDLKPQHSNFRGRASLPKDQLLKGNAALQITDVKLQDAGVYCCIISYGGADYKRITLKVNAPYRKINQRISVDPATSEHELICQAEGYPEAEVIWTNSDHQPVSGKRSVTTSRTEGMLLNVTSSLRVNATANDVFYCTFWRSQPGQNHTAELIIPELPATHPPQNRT

[9] = molecular target: T8, BH-H2 (Sino Biological, Cat #11559-H08H) (UniProt O75144 19-258); assay: ELISA
T8 sequence (looked up): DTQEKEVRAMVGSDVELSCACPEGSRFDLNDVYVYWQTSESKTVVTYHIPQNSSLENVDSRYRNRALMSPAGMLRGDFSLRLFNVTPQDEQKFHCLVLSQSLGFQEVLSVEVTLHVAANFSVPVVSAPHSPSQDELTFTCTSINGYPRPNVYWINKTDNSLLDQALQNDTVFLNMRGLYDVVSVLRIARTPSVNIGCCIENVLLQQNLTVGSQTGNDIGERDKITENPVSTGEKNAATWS

[10] = molecular target: T9, cynomolgus PD-L1-His (Sino Biological, Cat. 90251-C08H) (cynomolgus, UniProt Q9NZQ7 19-238 (human entry)); assay: BLI (Gator), cynomolgus PD-L1
T9 construct: Bought protein; also called Cyno PD-L1; Cynomolgus PD-L1 ECD-His; not shown: His tag
T9 sequence (Q9NZQ7 other isoform, or with tags, fused parts or gaps C08H C08H limits assumed): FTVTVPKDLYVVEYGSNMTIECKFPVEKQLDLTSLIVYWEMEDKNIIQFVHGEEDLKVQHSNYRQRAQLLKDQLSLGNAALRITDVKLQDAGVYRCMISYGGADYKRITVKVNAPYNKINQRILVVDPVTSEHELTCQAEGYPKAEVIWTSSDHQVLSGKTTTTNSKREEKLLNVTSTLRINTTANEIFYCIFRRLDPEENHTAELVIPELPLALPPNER

T1 sequence (Q9NZQ7 19-238): as the sequence (Q9NZQ7 other isoform, or with tags, fused parts or gaps C08H C08H limits assumed) above, with T33A, S34A, N62S, Q68R, R82Q, L173F, A185T, I192T, L215H counted along it

B1: 33H7 (antibody, human IgG1, V domains shown)
VH: QEQLVESGGGLVQPEGSLTVTCTASGFDLSRYFYMSWVRQAPGKGLEWIASISTGSDITDYASWAKGRFTISKTSSTTVTLQMTTLTAADTAIYFCARWTSGGGGFGLWGPGTLVTVSS
VL: QVLTQTASPVSAAVGGTVTLNCQSSQSIYNNYLSWYQQRAGQPPKLLIYSTATLASGVPSRFKGSGSGTQFTLTISEIQCEDAATYYCQGYYSGYIWTFGGGTEVVVK
[1]
  Kd: 0.61 nM
  koff: 0.000329 s⁻¹
  kon: 536000 M⁻¹ s⁻¹
[2]
  binding result: no binding
[3]
  binding result: no binding
[4]
  binding result: no binding
[5]
  binding result: no binding
[6]
  binding result: no binding
[7]
  binding result: no binding
[8]
  binding result: no binding
[9]
  binding result: no binding
[10]
  Kd: 0.23 nM
  koff: 8.1e-05 s⁻¹
  kon: 350000 M⁻¹ s⁻¹
